# Measurements reported in the supplement of paper PMC6757056.
# ± gives the standard deviation of the averaged measurements.
# B1: library; a variant is named by its letters at N, in order (parent)
# chain: GCUGUCACCGGUGUAUUACCCUAGUGGUCGACCGGUCUGAUGAGUCUNNNNNNAGACGAAACAGC
# What was measured:
# hypoxanthine [1] = variants of: B1; test: FACS-Seq fitted mean relative fluorescence mCherry/BFP without ligand (log10 relative fluorescence); ligand: hypoxanthine (xanthine aptamer); higher = higher reporter protein expression; details: HEK293T, ligand present: no
# Method in brief: (§1)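 Reporter cells were enriched HEK293T libraries transduced by lentivirus with mCherry behind the ribozyme switch and with an EF1α-BFP marker. Following 48 h with or without ligand, they were sorted into 6 mCherry/BFP bins, and bin genomic DNA was PCR-amplified, barcoded and MiSeq-sequenced. Fluorescence was computed as the fitted normal mean of the bin counts. The fit used log10(mCherry/BFP), with scaling to five spiked-in control ribozymes.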
# hypoxanthine [2] = variants of: B1; test: normalized RNA/DNA level with ligand (relative to sTRSVctl = 100) (log10 (% of sTRSVctl)); ligand: hypoxanthine (xanthine aptamer); higher = less ribozyme self-cleavage, higher mRNA level; details: ligand concentration (+) RNA-Seq: 5 mM, HEK293T, reporter: mCherry (pCS4076), ligand present: yes
# Method in brief: (§2)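 Only sequences with at least 100 DNA reads were analyzed, from HEK293T cells transfected with 4 µg per 6-well well of ribozyme switch library plasmids 72 h before RNA extraction with EDTA. Any ligand was added 1 h before transfection. RNA level was defined as RNA over DNA reads, normalized to a spiked-in non-cleaving sequence or to the top sequences, then scaled and log-transformed. The top set was 25 sequences, and the scaling was ×100 followed by log10.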
# hypoxanthine [3] = variants of: B1; test: normalized RNA/DNA level without ligand (relative to sTRSVctl = 100) (log10 (% of sTRSVctl)); ligand: hypoxanthine (xanthine aptamer); higher = less ribozyme self-cleavage, higher mRNA level; details: HEK293T, reporter: mCherry (pCS4076), ligand present: no
# Method in brief: as §2
# hypoxanthine [4] = variants of: B1; test: FACS-Seq fitted mean relative fluorescence mCherry/BFP with ligand (log10 relative fluorescence); ligand: hypoxanthine (xanthine aptamer); ligand concentration (+) FACS-Seq: 5 mM; higher = higher reporter protein expression; details: HEK293T, ligand present: yes
# Method in brief: as §1
Variant,FACS-Seq fitted mean (log10) (hypoxanthine [1]),normalized RNA/DNA level with ligand (log10) (hypoxanthine [2]),normalized RNA/DNA level without ligand (log10) (hypoxanthine [3]),FACS-Seq fitted mean (log10) (hypoxanthine [4])
GCCGUU,-0.297 ± 0.0052,1.978 ± 0.019,1.92 ± 0.051,0.037 ± 0.093
ACGAUG,0.311 ± 0.018,1.734 ± 0.013,1.23 ± 0.036,0.629 ± 0.079
ACGAUA,0.143 ± 0.0029,1.87 ± 0.03,1.582 ± 0.013,0.508 ± 0.011
CCCUCU,0.556 ± 0.081,1.98 ± 0.036,1.994 ± 0.015,0.481 ± 0.086
CCCUUA,0.315 ± 0.0096,2.002 ± 0.019,1.905 ± 0.014,0.279 ± 0.083
ACGUAG,-0.209 ± 0.01,1.61 ± 0.021,1.16 ± 0.054,0.574 ± 0.028
ACGUAA,0.16 ± 0.018,1.86 ± 0.072,1.491 ± 0.0093,0.4284 ± 0.0027
GCCUAA,0.363 ± 0.14,1.94 ± 0.071,1.8319 ± 0.00042,0.558 ± 0.036
GCCUAG,0.303 ± 0.03,1.89 ± 0.097,1.5 ± 0.12,0.678 ± 0.037
CCCUGA,0.263 ± 0.023,1.92 ± 0.031,1.88 ± 0.039,0.308 ± 0.011
CCCUAA,0.693 ± 0.022,1.94 ± 0.022,1.907 ± 0.011,0.837 ± 0.06
CCGGUU,0.42 ± 0.083,2.026 ± 0.011,1.91 ± 0.032,0.297 ± 0.098
CCGGUG,0.264 ± 0.0078,1.87 ± 0.087,1.45 ± 0.044,0.594 ± 0.0013
GCGUGA,0.278 ± 0.054,1.82 ± 0.048,1.4 ± 0.017,0.618 ± 0.062
CCCGGG,0.92 ± 0.051,1.94 ± 0.12,1.6826 ± 0.0015,0.833 ± 0.061
CCCGGA,0.102 ± 0.0056,1.97 ± 0.042,1.88 ± 0.036,0.0786 ± 0.0026
ACCUUG,0.241 ± 0.0074,1.88 ± 0.014,1.6 ± 0.055,0.521 ± 0.04
GCCGCA,0.533 ± 0.054,1.96 ± 0.067,1.845 ± 0.0021,0.587 ± 0.027
GCCGCG,0.226 ± 0.012,1.94 ± 0.045,1.521 ± 0.0049,0.576 ± 0.024
ACGGUA,0.318 ± 0.0024,1.85 ± 0.056,1.57 ± 0.064,0.5989 ± 0.004
CCGUGA,0.311 ± 0.044,1.973 ± 0.0073,1.565 ± 0.012,0.64 ± 0.017
UCCCGU,0.434 ± 0.043,1.934 ± 0.0021,1.703 ± 0.015,0.554 ± 0.048
CCGGGA,0.607 ± 0.06,1.97 ± 0.022,1.82 ± 0.037,0.674 ± 0.071
CCGGGC,0.124 ± 0.013,1.99 ± 0.074,1.88 ± 0.019,0.382 ± 0.068

Variant,FACS-Seq fitted mean (log10) (hypoxanthine [1]),normalized RNA/DNA level with ligand (log10) (hypoxanthine [2]),normalized RNA/DNA level without ligand (log10) (hypoxanthine [3]),FACS-Seq fitted mean (log10) (hypoxanthine [4])
UCCGGG,-0.0285 ± 0.023,1.98 ± 0.047,1.93 ± 0.031,0.2736 ± 0.00093
UCCGGA,0.226 ± 0.02,1.96 ± 0.031,1.75 ± 0.021,0.384 ± 0.0052
GCGAGU,0.238 ± 0.013,1.86 ± 0.044,1.23 ± 0.059,0.662 ± 0.069
GCGAGG,-0.188 ± 0.032,1.637 ± 0.015,1.11 ± 0.036,0.5 ± 0.017
GCGAGA,-0.0976 ± 0.016,1.8 ± 0.042,1.31 ± 0.0073,0.312 ± 0.025
UCCCUG,0.429 ± 0.01,1.87 ± 0.076,1.41 ± 0.0038,0.587 ± 0.0069
CCGACC,0.287 ± 0.081,2.08 ± 0.082,1.85 ± 0.063,0.555 ± 0.015
CCGACU,0.195 ± 0.058,1.989 ± 0.013,1.82 ± 0.038,0.381 ± 0.0067
CCGACG,0.527 ± 0.0072,1.9241 ± 0.0017,1.685 ± 0.0014,0.6331 ± 0.0049
GCGGUA,0.439 ± 0.019,1.943 ± 0.0021,1.68 ± 0.036,0.677 ± 0.034
GCGGUG,0.212 ± 0.007,1.79 ± 0.053,1.41 ± 0.097,0.623 ± 0.019
GCGGUC,0.327 ± 0.046,1.878 ± 0.015,1.5197 ± 0.00012,0.644 ± 0.063
ACGGCG,-0.0504 ± 0.0018,1.91 ± 0.025,1.42 ± 0.015,0.466 ± 0.082
UCCGCG,0.209 ± 0.032,1.894 ± 0.009,1.512 ± 0.011,0.621 ± 0.055
UCCCAG,0.261 ± 0.0092,1.84 ± 0.0087,1.35 ± 0.023,0.506 ± 0.016
GCCCUU,0.019 ± 0.061,1.95 ± 0.065,1.92 ± 0.058,0.231 ± 0.0079
GCCCUG,-0.113 ± 0.029,1.873 ± 0.0091,1.49 ± 0.049,0.497 ± 0.092
UCGCGU,0.334 ± 0.04,1.9 ± 0.026,1.56 ± 0.048,0.509 ± 0.016
UCGAAG,0.5 ± 0.074,1.87 ± 0.039,1.417 ± 0.0057,0.746 ± 0.025
UCGAAA,0.163 ± 0.02,1.86 ± 0.052,1.4 ± 0.051,0.395 ± 0.045
CCGCAG,0.345 ± 0.031,1.82 ± 0.072,1.39 ± 0.032,0.638 ± 0.042
GCCUCG,0.33703 ± 0.00012,1.91 ± 0.039,1.6 ± 0.029,0.649 ± 0.049
GCCCAG,0.0481 ± 0.032,1.81 ± 0.052,1.4 ± 0.027,0.24 ± 0.019
ACCGUA,0.247 ± 0.0083,1.93 ± 0.065,1.822 ± 0.014,0.474 ± 0.038

Variant,FACS-Seq fitted mean (log10) (hypoxanthine [1]),normalized RNA/DNA level with ligand (log10) (hypoxanthine [2]),normalized RNA/DNA level without ligand (log10) (hypoxanthine [3]),FACS-Seq fitted mean (log10) (hypoxanthine [4])
ACGGAC,0.332 ± 0.11,1.92 ± 0.06,1.7 ± 0.029,0.565 ± 0.062
ACGGAU,-0.0352 ± 0.029,1.7216 ± 0.0016,1.24 ± 0.068,0.537 ± 0.024
ACGGAA,0.072 ± 0.016,1.891 ± 0.013,1.45 ± 0.034,0.327 ± 0.04
ACGGAG,-0.0823 ± 0.0037,1.62 ± 0.031,1.12 ± 0.052,0.482 ± 0.12
ACCGAU,0.387 ± 0.047,1.89 ± 0.056,1.669 ± 0.0087,0.531 ± 0.015
UCGGUA,0.215 ± 0.024,1.912 ± 0.014,1.562 ± 0.014,0.485 ± 0.04
GCGCAC,0.112 ± 0.061,1.8 ± 0.2,1.412 ± 0.0031,0.0185 ± 0.28
GCGCAG,-0.0972 ± 0.035,1.58 ± 0.048,1.06 ± 0.11,0.617 ± 0.052
UCGAGA,0.0619 ± 0.098,1.74 ± 0.046,1.16 ± 0.086,0.455 ± 0.15
UCGAGU,-0.023 ± 0.0044,1.74 ± 0.037,1.2 ± 0.071,0.407 ± 0.029
UCGCCU,-0.0175 ± 0.065,2.036 ± 0.016,1.89 ± 0.062,0.035 ± 0.011
UCGUAG,0.444 ± 0.042,1.88 ± 0.031,1.5605 ± 0.0013,0.642 ± 0.051
ACGCAA,0.184 ± 0.18,1.88 ± 0.022,1.55 ± 0.039,0.149 ± 0.02
ACGCAU,0.3211 ± 0.00042,1.79 ± 0.021,1.42 ± 0.032,0.534 ± 0.042
ACGCAG,-0.302 ± 0.02,1.58 ± 0.041,1.09 ± 0.044,0.377 ± 0.039
GCGGGA,0.182 ± 0.017,1.97 ± 0.034,1.718 ± 0.012,0.591 ± 0.025
GCGGGG,0.17 ± 0.0079,1.96 ± 0.031,1.56 ± 0.026,0.433 ± 0.03
GCGGGU,0.731 ± 0.07,1.97 ± 0.048,1.83 ± 0.016,0.735 ± 0.05
ACGAAU,0.0248 ± 0.013,1.77 ± 0.0059,1.19 ± 0.025,0.504 ± 0.01
ACGAAA,0.129 ± 0.049,1.86 ± 0.039,1.47 ± 0.056,0.425 ± 0.036
ACGAAG,-0.023 ± 0.0073,1.49 ± 0.041,1.072 ± 0.0031,0.501 ± 0.023
ACCCUG,0.60276 ± 0.00041,1.875 ± 0.0043,1.411 ± 0.0069,0.786 ± 0.12
GCGUAG,-0.175 ± 0.014,1.566 ± 0.0039,1.15 ± 0.062,0.539 ± 0.027
